The stoichiometry N is a count of units in the complex or per binding partner. Usually Ki stands for a measure of affinity in units of concentration, obtained from inhibition or displacement. High values mean weaker binding, low ones tighter binding. As usually defined, the kcat is the number of substrate molecules converted per active site and unit of time at saturation. A word on the kcat/Km: it is the second-order rate constant that governs catalysis at low substrate concentration.

The results in this text go back to paper PMC4230899, “Diverse allosteric and catalytic functions of tetrameric D-lactate dehydrogenases from three Gram-negative bacteria” (AMB Express, 2014).

The target in series [1] is NAD-dependent D-lactate dehydrogenase from Pseudomonas aeruginosa (Pseudomonas aeruginosa JCM8532 (=PAO1)). In words: SEC; Superdex 200 (Hiload 16/60), 1 ml of 1 mg/ml protein, 50 mM sodium acetate pH 5.0 with 150 mM NaCl; calibrated with standard proteins; apparent molecular weight against theoretical subunit weight. A general note: In gel filtration, larger molecules generally elute earlier.

Series [2] concerns the target T1, ECLDH (Escherichia coli, UniProt P52643).
T1 construct: gene ldhA
T1 sequence (P52643 1-329): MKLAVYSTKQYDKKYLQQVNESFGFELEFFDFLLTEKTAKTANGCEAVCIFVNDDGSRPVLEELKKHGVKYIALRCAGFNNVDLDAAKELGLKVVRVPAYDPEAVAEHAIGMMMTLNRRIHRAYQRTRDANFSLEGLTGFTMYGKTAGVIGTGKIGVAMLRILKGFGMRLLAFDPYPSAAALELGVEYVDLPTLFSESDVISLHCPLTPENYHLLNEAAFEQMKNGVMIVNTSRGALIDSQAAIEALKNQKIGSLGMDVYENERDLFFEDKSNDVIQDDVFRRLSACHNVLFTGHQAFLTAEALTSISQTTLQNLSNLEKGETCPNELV
Description: NADH absorbance at […] nm, activation of pyruvate reduction, Hill fit. The series is classed as biochemical. Particulars: slight activator, half-saturation for activation; 7.5 mM pyruvate, 0.1 mM NADH; 50 mM Bicine-NaOH pH 8.0; 30 °C; read-out: S 0.5.

The target in series [3] is T2, FNLDH (Fusobacterium nucleatum, UniProt Q8RG11).
T2 construct: gene FN0511
T2 sequence (Q8RG11 1-335): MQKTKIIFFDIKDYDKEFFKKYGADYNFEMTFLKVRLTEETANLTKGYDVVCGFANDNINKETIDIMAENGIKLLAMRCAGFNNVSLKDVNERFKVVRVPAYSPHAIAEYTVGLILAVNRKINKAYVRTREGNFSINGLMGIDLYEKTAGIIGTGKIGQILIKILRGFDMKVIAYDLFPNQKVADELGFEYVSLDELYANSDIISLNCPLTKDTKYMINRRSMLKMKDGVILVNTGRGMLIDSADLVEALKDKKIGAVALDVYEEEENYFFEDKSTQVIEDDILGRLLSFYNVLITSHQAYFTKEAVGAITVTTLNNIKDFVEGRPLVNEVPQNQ
In words: NADH absorbance at […] nm, pyruvate reduction, nonlinear regression. The series is classed as biochemical.

In series [4] the target is T1, ECLDH. The series is described as above. Format: biochemical.
For series [5], the target named is T3, PALDH (Pseudomonas aeruginosa, UniProt Q9I530).
T3 construct: gene ldhA
T3 sequence (Q9I530 1-329): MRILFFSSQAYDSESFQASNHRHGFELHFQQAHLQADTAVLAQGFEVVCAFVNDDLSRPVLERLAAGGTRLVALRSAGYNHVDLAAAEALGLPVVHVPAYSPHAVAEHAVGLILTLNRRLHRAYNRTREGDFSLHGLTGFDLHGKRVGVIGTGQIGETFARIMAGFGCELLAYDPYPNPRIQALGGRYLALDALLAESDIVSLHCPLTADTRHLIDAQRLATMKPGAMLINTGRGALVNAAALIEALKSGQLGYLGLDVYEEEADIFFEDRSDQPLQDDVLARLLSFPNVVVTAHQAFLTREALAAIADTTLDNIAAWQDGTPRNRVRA
The series is described as above. Format: biochemical.

Series [6] concerns the molecule itself. In words: SEC; Superdex 200 (Hiload 16/60), 1 ml of 1 mg/ml protein, 50 mM HEPES-NaOH pH 8.0 with 150 mM NaCl; calibrated with standard proteins; apparent molecular weight against theoretical subunit weight.
Substrate in series [7]: O=CC(=O)O
In words: purified protein. Particulars: 0.1 mM NADH, pH 7.0, 30 °C, Hill fit. The series is classed as biochemical, Escherichia coli.

Substrate in series [8]: CC(=O)C(=O)O
In words: purified protein. Format: biochemical, Escherichia coli. Particulars: 0.1 mM NADH, pH 7.0, 30 °C, no effector, Hill fit.

Substrate in series [9]: O=C(O)C(=O)CO
Description: purified protein. Format: biochemical, Escherichia coli. The settings on record: 0.1 mM NADH, pH 7.0, 30 °C.

Substrate in series [10]: NC(=O)C1=CN([C@@H]2O[C@H](COP(=O)(O)OP(=O)(O)OC[C@H]3O[C@@H](n4cnc5c(N)ncnc54)[C@H](O)[C@@H]3O)[C@@H](O)[C@H]2O)C=CC1
In words: purified protein. The settings on record: saturating pyruvate, pH 7.0, 30 °C, no effector, apparent, varied: cofactor. The series is classed as biochemical, Escherichia coli.

Substrate in series [11]: CCC(=O)C(=O)O
In words: purified protein. Format: biochemical, Pseudomonas aeruginosa. The settings on record: 0.1 mM NADH, pH 7.0, 30 °C.

Substrate in series [12]: O=C(O)CC(=O)C(=O)O
Description: purified protein. The series is classed as biochemical, Pseudomonas aeruginosa. Particulars: 0.1 mM NADH, pH 7.0, 30 °C.

Substrate in series [13]: CC(=O)C(=O)O
In words: purified protein. Format: biochemical, Pseudomonas aeruginosa. The settings on record: 0.1 mM NADH, pH 7.0, 30 °C, no effector, fit with substrate inhibition.

Substrate in series [14]: O=C(O)C(=O)CO
Description: purified protein. Format: biochemical, Pseudomonas aeruginosa. The settings on record: 0.1 mM NADH, pH 7.0, 30 °C, fit with substrate inhibition.

Substrate in series [15]: NC(=O)C1=CN([C@@H]2O[C@H](COP(=O)(O)OP(=O)(O)OC[C@H]3O[C@@H](n4cnc5c(N)ncnc54)[C@H](O)[C@@H]3O)[C@@H](O)[C@H]2O)C=CC1
Description: purified protein. Format: biochemical, Pseudomonas aeruginosa. The settings on record: saturating pyruvate, pH 7.0, 30 °C, no effector, apparent, varied: cofactor.

Substrate in series [16]: CCC(=O)C(=O)O
In words: purified protein. The series is classed as biochemical, Fusobacterium nucleatum. Particulars: 0.1 mM NADH, pH 7.0, 30 °C.

Substrate in series [17]: O=C(O)CC(=O)C(=O)O
In words: purified protein. The settings on record: 0.1 mM NADH, pH 7.0, 30 °C, fit with substrate inhibition. Format: biochemical, Fusobacterium nucleatum.

Substrate in series [18]: CCCC(=O)C(=O)O
Description: purified protein. Format: biochemical, Fusobacterium nucleatum. The settings on record: 0.1 mM NADH, pH 7.0, 30 °C.

Substrate in series [19]: CC(=O)C(=O)O
In words: purified protein. Format: biochemical, Fusobacterium nucleatum. Particulars: 0.1 mM NADH, pH 7.0, 30 °C, no effector.

Substrate in series [20]: NC(=O)C1=CN([C@@H]2O[C@H](COP(=O)(O)OP(=O)(O)OC[C@H]3O[C@@H](n4cnc5c(N)ncnc54)[C@H](O)[C@@H]3O)[C@@H](O)[C@H]2O)C=CC1
Description: purified protein. Particulars: saturating pyruvate, pH 7.0, 30 °C, no effector, apparent, varied: cofactor. Format: biochemical, Fusobacterium nucleatum.

Regarding “NAD-dependent D-lactate dehydrogenase from Pseudomonas aeruginosa (enzyme)”, the stoichiometry N in series [1] came out at 3.
On to `O=P(O)(O)OC[C@H]1OC(O)(COP(=O)(O)O)[C@@H](O)[C@@H]1O` (stereo partly shown) [FBP], for which, in [2], the EC50 came out at 1.3 mM.
As to `NC(=O)C(=O)O` [Oxamate], the Ki in series [3] was 9.4 ± 0.2 mM; in [4] it was 20 ± 2 mM; in [5] it was 0.29 ± 0.04 mM.

B1: NAD-dependent D-lactate dehydrogenase from Escherichia coli (enzyme, E. coli BL21(DE3), UniProt P52643 1-329, looked up)
chain: T1 sequence (P52643 1-329)
notes: gene amplified from genomic DNA with primers from the start codon to the stop codon; theoretical molecular weight printed as 38.5 kDa; No removal of the vector's tag is described; the printed theoretical mass (38.5 kDa) may include the leader of pCold I (surmise); A second peak at the position of an octamer was seen and put down as a likely artefact of overexpression; also called ECLDH; …
Consider B1, for which the “stoichiometry N” value in series [6] came to 4. Also, the K0.5 was 20 (2) mM in [7], 2.6 (0.09) mM in [8], 12 (0.3) mM in series [9] and 0.055 (0.004) mM in series [10]. Also, the kcat in series [7] is 100 s⁻¹; in [8], 410 s⁻¹; in [9], 50 s⁻¹; in series [10], 640 s⁻¹. Moreover, the kcat/Km stood at 5300 M⁻¹ s⁻¹ in series [7], 160000 M⁻¹ s⁻¹ in series [8], 4200 M⁻¹ s⁻¹ in [9] and 1.2e+07 M⁻¹ s⁻¹ in series [10].

B2: PALDH (Pseudomonas aeruginosa PAO1) (protein)
chain: T3 sequence (Q9I530 1-329)
On to B2, for which the K0.5 in series [11] was 0.64 (0.01) mM; in series [12] it was 1.7 (0.06) mM; in [13], 0.10 (0.009) mM; in [14] it was 3.0 (0.2) mM; in series [15], 0.019 (0.0005) mM. Besides, the kcat in series [11] came out at 100 s⁻¹; in series [12], 410 s⁻¹; in [13] it was 400 s⁻¹; in series [14] it was 420 s⁻¹; in series [15], 310 s⁻¹. Besides, the kcat/Km in series [11] amounted to 150000 M⁻¹ s⁻¹; in [12] it was 230000 M⁻¹ s⁻¹; in [13], 4e+06 M⁻¹ s⁻¹; in [14], 140000 M⁻¹ s⁻¹; in series [15], 1.7e+07 M⁻¹ s⁻¹.

B3: NAD-dependent D-lactate dehydrogenase from Fusobacterium nucleatum subsp. nucleatum (enzyme, UniProt Q8RG11 1-335, looked up)
chain: T2 sequence (Q8RG11 1-335)
notes: FN0511 protein (FNLDH), NAD-dependent D-lactate dehydrogenase of Fusobacterium nucleatum subsp. nucleatum JCM14847 (=ATCC25586); gene amplified from genomic DNA with primers from the start codon to the stop codon; theoretical molecular weight printed as 40.0 kDa; No removal of the vector's tag is described; the printed theoretical mass (40.0 kDa) may include the leader of pCold I (surmise); The …
Turning to B3, the K0.5 is recorded as 0.31 (0.006) mM in [16]; 2.5 (0.09) mM in series [17]; 0.68 (0.01) mM in [18]; 0.34 (0.007) mM in [19]; 0.022 (0.0005) mM in series [20]. Also, the kcat in series [16] came to 140 s⁻¹; in [17] it was 80 s⁻¹; in series [18], 140 s⁻¹; in series [19], 80 s⁻¹; in series [20], 98 s⁻¹. The kcat/Km in series [16] was found to be 440000 M⁻¹ s⁻¹; in series [17], 31000 M⁻¹ s⁻¹; in [18], 200000 M⁻¹ s⁻¹; in series [19], 230000 M⁻¹ s⁻¹; in series [20], 4.4e+06 M⁻¹ s⁻¹. In [6], the “stoichiometry N” value was 4.
